Measurements reported in patent publication US20240182561A1 (Regeneron, published 2024).

T1: mouse CACNG1 expressed on cells (mouse, UniProt O70578 1-223)
T1 construct: whole, on cells; Transfected in HEK293/mCACNG1; endogenous in C2C12 myotubes and wildtype mouse myofibers; Each row names the cell type under assay; also called mCACNG1; HEK293/mCACNG1
T1 sequence (looked up): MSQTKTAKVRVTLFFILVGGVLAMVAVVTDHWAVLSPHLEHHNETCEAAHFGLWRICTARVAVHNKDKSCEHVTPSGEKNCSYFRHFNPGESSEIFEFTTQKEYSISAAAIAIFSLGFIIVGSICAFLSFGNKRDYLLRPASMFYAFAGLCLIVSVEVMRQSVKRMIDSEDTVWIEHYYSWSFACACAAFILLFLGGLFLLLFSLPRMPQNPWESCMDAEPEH


What was measured:
[1] = biological target: T2, human CACNG1 expressed on cells (human, UniProt Q06432 1-222); test: imaging cell binding, HuSKM myotubes
T2 construct: also called hCACNG1; HEK293/hCACNG1
T2 sequence (Q06432 whole entry): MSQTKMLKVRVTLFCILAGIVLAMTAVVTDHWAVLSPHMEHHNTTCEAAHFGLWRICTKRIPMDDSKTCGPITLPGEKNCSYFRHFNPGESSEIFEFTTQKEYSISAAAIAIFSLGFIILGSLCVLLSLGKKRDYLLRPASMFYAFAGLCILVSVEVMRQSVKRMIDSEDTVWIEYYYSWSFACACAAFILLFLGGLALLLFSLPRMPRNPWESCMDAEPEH
Description: (§1) HuSKM were seeded in collagen-coated 96-well plates (Greiner Bio-One #655956) at 8,500 cells/well and grown for 24 hours. The growth media was changed to MyoTonic Differentiation Media (Cook Myosite Cat #MD-5555) and replaced every 2 days. Myotubes were assayed after 6 days of differentiation. C2C12 mouse myoblasts were maintained in DMEM with 10% FBS and 1% penicillin-streptomycin supplement and grown in a 37° C. incubator with 5% CO₂. C2C12 cells were seeded in collagen-coated 96-well plates (Greiner Bio-One #655956) at 10,000 cells/well for the cell binding assay and 5,000 cells/well for the cell killing assay. After 24 hours, growth media was replaced with differentiation media (DMEM with 2% horse serum) and placed in a 37° C. incubator with 7.5% CO₂. C2C12 myotubes were assayed after 3 days of differentiation. HEK293/hCACNG1, HEK293/mCACNG1, and HEK293 cells were seeded at 10,000 cells (cell binding assay) or 2,000 (cell killing assay) per well in 96-well black collagen coated plates (Greiner Bio-One, cat #655956) in complete growth media and grown overnight at 37° C. in 5% CO₂.
(§2) Relative binding of anti-CACNG1 antibodies was assessed across the entire panel of cell lines via imaging analysis. […] After one wash with antibody dilution buffer, samples were fixed in CytoFix (BD Biosciences, Cat #554655) diluted 1:1 in PBS and supplemented with a 1:2000 dilution of Hoechst 33342 (Thermo, Cat #H1399) for 20 minutes on ice. Images were acquired with a 10× objective on the Opera Phenix (Perkin Elmer) and relative fluorescence units (RFU) was determined using Harmony software (Perkin Elmer).

[2] = biological target: T1, mouse CACNG1 expressed on cells; test: imaging cell binding, C2C12 mouse myotubes
Description: as §1, §2

[3] = biological target: T3, nanodisc embedded human CACNG1 expressed with a C-terminal PADRE-Flag-His tag (human, UniProt Q06432 1-222); test: SPR, anti-His-captured nanodisc, 25 C
T3 construct: Captured on an anti-His Biacore surface; also called human CACNG1 nanodisc; CACNG1 nanodisc; not shown: C-terminal tag
T3 sequence (Q06432 whole entry): as above
Description: Equilibrium dissociation constants (KD values) for nanodisc embedded human CACNG1 expressed with a C-terminal […] tag (human CACNG1 nanodisc; concentration 0.82 mg/ml) binding to purified anti-CACNG1 antibodies were determined using a real-time surface plasmon resonance biosensor technology with a Biacore T200 instrument. The CM5 Biacore sensor surface was derivatized by amine coupling with a monoclonal mouse anti-His antibody (Cytiva; Marlborough, MA). All Biacore binding studies were performed in a buffer composed of 0.01M HEPES, 0.15M NaCl, 1 mM CaCl₂, 0.5 mM MgCl₂, pH 7.4 (HBS-N++ running buffer). Different concentrations of anti-CACNG1 antibodies (ranging from 300 nM to 12 nM in 5-fold serial dilutions) prepared in HBS-N++ running buffer were injected over the captured human CACNG1 nanodisc at a flow rate of 30 μL/minute. Antibody association was monitored for 2 minutes while dissociation was monitored in HBS-N++ running buffer for 5 minutes. At the end of each cycle, the human CACNG1 nanodisc capture surface was regenerated using three 10 second injections of 10 mM Gly pH1.5. All binding kinetics experiments were performed at 25° C.
The specific SPR-Biacore sensorgrams were obtained by a double referencing procedure. The double referencing was performed by first subtracting the signal of each injection over a reference surface (anti-His) from the signal over the experimental surface (anti-His captured human CACNG1 nanodisc) thereby removing contributions from refractive index changes. In addition, running buffer injections were performed to allow subtraction of the signal changes resulting from the dissociation of captured antibodies from the coupled anti-His surface. Kinetic association (kₐ) and dissociation ([…]) rate constants were determined by fitting the real-time sensorgrams to a 1:1 binding model using Scrubber v2.0c curve fitting software. Binding dissociation equilibrium constants (KD) and dissociative half-lives (t %) were calculated from the kinetic rate constants as: […]

[4] = biological target: T1, mouse CACNG1 expressed on cells; test: imaging cell binding, HEK293/mCACNG1
Description: as §1, §2

[5] = biological target: T2, human CACNG1 expressed on cells; test: imaging cell binding, HEK293/hCACNG1
Description: as §1, §2

[6] = biological target: T2, human CACNG1 expressed on cells; test: imaging cell binding, HuSKM myotubes; remark: listed apart in the source
Description: as §1, §2

[7] = biological target: T1, mouse CACNG1 expressed on cells; test: imaging cell binding, C2C12 mouse myotubes; remark: listed apart in the source
Description: as §1, §2

[8] = biological target: T2, human CACNG1 expressed on cells; test: imaging cell binding, HEK293/hCACNG1; remark: listed apart in the source
Description: as §1, §2

[9] = biological target: T1, mouse CACNG1 expressed on cells; test: cell-based or functional assay
[10] = biological target: T2, human CACNG1 expressed on cells; test: cell-based or functional assay
[11] = biological target: T2, human CACNG1 expressed on cells; test: cell-based or functional assay; remark: listed apart in the source
[12] = biological target: T2, human CACNG1 expressed on cells; test: cell-based or functional assay; remark: listed apart in the source
[13] = biological target: T2, human CACNG1 expressed on cells; test: cell-based or functional assay; remark: listed apart in the source

Row | Binder | EC50 [1] | Kd [3] | koff [3] | kon [3] | mAb bound at 300 nM [3] | t1/2 [3] | S/N [4] | EC50 [6] | S/N [6] | S/N [7] | EC50 [8] | S/N [8] | % KILL, indirect cell killing, C2C12 [9] | % KILL, indirect cell killing, HEK293/mCACNG1 [9] | EC50/IC50, indirect cell killing, C2C12 [9] | EC50/IC50, indirect cell killing, HEK293/mCACNG1 [9] | % KILL, indirect cell killing, HEK293/hCACNG1 [10] | % KILL, indirect cell killing, HuSKM [10] | EC50/IC50, indirect cell killing, HEK293/hCACNG1 [10] | EC50/IC50, indirect cell killing, HuSKM [10] | further results
1 | REGN10712 (antibody, human IgG4 S228P, lambda, V domains shown, hIgG4) VH: QVQLVESGGGVVQPGRSLRLSCAASGFTFSTYGMYWVRQTPGKGLEWVTVISFDGNKKYYADSVKGRFTISRDNSKNTLFLQMNSLKTEDTAVYYCAKSSNWNYGSFDIWGQGTMVTVSS VL: QSVLTQPPSVSGAPGQRVTISCTGSSSNIGAGYDVHWYQQLPGTAPRLLISYNSNRPSGVPDRFSGSKSGTSASLAITGLQAEDEADYYCQSYDRSLSGSVFGGGTQLTVLG | 0.053 nM | 4.53 nM | 0.00332 s⁻¹ | 733000 M⁻¹ s⁻¹ | 31 RU | 3.5 min |  |  |  |  |  |  |  |  |  |  |  |  |  |  | S/N [1]: 102 fold; EC50 [2]: > 100 nM; S/N [2]: 8.6 fold
2 | REGN10716 (antibody, human IgG4 S228P, kappa, hIgG4) heavy: not shown light: EIVLTQSPGTLSLSPGERATLSCRASQTINHNNLAWYQQRPGQAPRLLIYGASNRATAIPDRFSGSGSGTDFTLTISRLEPEDFEVYSCQQYGSLPLTFGGGTKVEIKRTVAAPSVFIFPPSDEQLKSGTASVVCLLNNFYPREAKVQWKVDNALQSGNSQESVTEQDSKDSTYSLSSTLTLSKADYEKHKVYACEVTHQGLSSPVTKSFNRGEC | 12 nM | 0.114 nM | 8.36e-05 s⁻¹ | 730000 M⁻¹ s⁻¹ | 31 RU | 138 min | 21.4 fold | 13 nM | 466 fold | 6.3 fold | > 100 nM | 35.9 fold | 99.9% | 91.2% | 0.0167 nM | 0.00893 nM | 95.1% | 61.7% | 0.00295 nM | 0.34 nM | EC50 [4]: > 100 nM; S/N [1]: 81.1 fold; EC50 [5]: > 100 nM; S/N [5]: 2.2 fold; EC50 [2]: > 100 nM; S/N [2]: 5.2 fold; EC50 [7]: > 100 nM
3 | REGN14571-M3004 (antibody, human IgG1, kappa, N297Q, N297Q; DHT linker-payload M3004 conjugated, DAR about 4) heavy chain: not shown light chain: EIVLTQSPGTLSLSPGERATLSCRASQTINHNNLAWYQQRPGQAPRLLIYGASNRATAIPDRFSGSGSGTDFTLTISRLEPEDFEVYSCQQYGSLPLTFGGGTKVEIKRTVAAPSVFIFPPSDEQLKSGTASVVCLLNNFYPREAKVQWKVDNALQSGNSQESVTEQDSKDSTYSLSSTLTLSKADYEKHKVYACEVTHQGLSSPVTKSFNRGEC |  |  |  |  |  |  |  |  |  |  |  |  |  |  |  |  |  |  |  |  | EC50 of androgen receptor luciferase reporter activation (RLU) by the DHT conjugate REGN14571-M3004 in hCACNG1.AR.Luc LNCaP cells, 48 hours; concentration adjusted for DAR [11]: 6.95 nM; EC50 of androgen receptor luciferase reporter activation (RLU) by the DHT conjugate REGN14571-M3004 in hCACNG1.AR.Luc LNCaP cells, 72 hours; concentration adjusted for DAR [12]: 5.44 nM; EC50 of androgen receptor luciferase reporter activation (RLU) by the DHT conjugate REGN14571-M3004 in hCACNG1.AR.Luc LNCaP cells, 24 hours; concentration adjusted for DAR [13]: 7.83 nM
4 | H2aM31929N (antibody, V domains shown, also called H2aM31929N/REGN10728 (lot H2aM31929N-L1)) VH: QVQLVESGGGVVQPGRSLRLSCTASGITFRNYGMHWVRQAPGKGLEWVAVMWYDGSNKYYADSVKGRFTISGDNSKVYLQMNSLRAEDTAVYYCARRGTIRTAAPFDYWGQGTLVTVSS VL: not shown |  | 0.745 nM | 0.000559 s⁻¹ | 750000 M⁻¹ s⁻¹ | 25 RU | 20.7 min | 1 fold | 1.9 nM | 252 fold | 1.2 fold | 6.2 nM | 84 fold | 7.5% | 18.3% | > 10 nM | > 1 nM | 95% | 96.3% | 0.00277 nM | 0.031 nM | binding result [7]: no binding (tested: 100 nM highest tested)
5 | H4H31265P2 (antibody, human IgG4 S228P, kappa, V domains shown, also called H4H31265P2/REGN5972 (lot H4H31265P2-L1)) VH: QVQLVESGGGVVQPGRSLRLSCTASGFTFRSYGMHWVRQAPGKGLEWVSVIWIDGNNIYYADSVKGRFTISRDNSKNTLYLQMDSLRAEDTAVYYCARRLAITSAAPFDYWGQGTLVTVSS VL: not shown |  | 81 nM | 0.0084 s⁻¹ | 104000 M⁻¹ s⁻¹ | 14 RU | 1.4 min | 1.2 fold | 3.3 nM | 250 fold | 0.8 fold | 11 nM | 247 fold | 3.4% | 22.9% | > 10 nM | > 1 nM | 94.6% | 95.6% | 0.00245 nM | 0.56 nM | binding result [7]: no binding (tested: 100 nM highest tested)
6 | REGN10717 (antibody, human IgG4 S228P, kappa, hIgG4) heavy: not shown light: DIQMTQSPSTLSASVGDRVTLTCRASQSISNKLAWYQQKPGKAPNLLIYKASNLESGVPSRFSGSGSGTEFTLTISSLQPDDFATYYCQQYNSYSWTFGQGTKVEIKRTVAAPSVFIFPPSDEQLKSGTASVVCLLNNFYPREAKVQWKVDNALQSGNSQESVTEQDSKDSTYSLSSTLTLSKADYEKHKVYACEVTHQGLSSPVTKSFNRGEC |  | 104 nM | 0.0304 s⁻¹ | 294000 M⁻¹ s⁻¹ | 7 RU | 0.4 min | 23.6 fold | 69 nM | 292 fold | 4.9 fold | > 100 nM | 77.4 fold | 99.8% | 96% | 0.00356 nM | 0.00118 nM | 97% | 99.6% | 0.000806 nM | 0.0364 nM | EC50 [4]: > 100 nM; EC50 [7]: > 100 nM
